B1: Bax74 (antibody, V domains shown)
VH: EVQLLESGGGLVQPGGSLRLSCAASGFTFSKYYMIWVRQAPGKGLEWVSWIGPSGGFTFYADSVKGRFTISRDNSKNTLYLQMNSLRAEDTAVYYCARGTPDYGGNSLDHWGQGTLVTVSS
VL: DIQMTQSPSSLPASVGDRVTITCRASQSIGTYLSWYQHKPGNAPKLLIYATSRLQSGVPSRFSGGGSGTRFTLAISSLQPDDFATYFCQQTYSTPLTFGGGTKVDIK
B2: Bax69 (antibody, V domains shown)
VH: EVQLLESGGGLVQPGGSLRLSCAASGFTFSIYSMNWVRQAPGKGLEWVSSIGSSGGTTYYADSVKGRFTISRDNSKNTLYLQMNSLRAEDTAVYYCAGSQWLYGMDVWGQGTTVTVSS
VL: DIQMTQSPSSLSASVGDRVTITCRSSQRIMTYLNWYQQKPGKAPKLLIFVASHSQSGVPSRFRGSGSETDFTLTISGLQPEDSATYYCQQSFWTPLTFGGGTKVEIK
B3: BaxA10 (antibody, V domains shown)
VH: EVQLLESGGGLVQPGGSLRLSCAASGFTFSWYAMDWVRQAPGKGLEWVSGIYPSGGRTKYADSVKGRFTISRDNSKNTLYLQMNSLRAEDTAVYYCARVNVIAVAGTGYYYYGMDVWGQGTTVTVSS
VL: DIQMTQSPGTLSLSPGERATLSCRASQGVSSSSLAWYQQKPGQAPRLLIYGTSSRATGIPDRFSGSASGTDFTLTISRLQPEDFAVYYCQQYGRSLTFGGGTKVEIK
B4: anti-MIF antibody Bax94 (antibody, V domains shown)
VH: B3 VH with W31I, Y52V, R57F
VL: B3 VL
B5: Bax152 (antibody, V domains shown)
VH: B3 VH with W31I, Y52V, R57F
VL: B3 VL with G9V, G28S, S30R, S33Y, A44T, T52A, S54N, A67G, Q80E, R94N

Positions count from the first letter of the chain named.

Chain of recombinant human MIF (macrophage migration inhibitory factor) (P14174 2-115): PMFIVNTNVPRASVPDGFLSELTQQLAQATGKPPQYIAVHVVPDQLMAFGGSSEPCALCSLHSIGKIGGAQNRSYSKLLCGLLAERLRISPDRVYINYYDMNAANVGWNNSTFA

The experiment addresses recombinant human MIF (macrophage migration inhibitory factor) (human, UniProt P14174 2-115). As to the kind of experiment: Biacore; Fab fragment. In general terms: SPR reads the build-up and loss of mass on a sensor chip optically.
For the molecule B1, the Kd (commonly the equilibrium constant for the complex coming apart) was 93 nM.

Regarding B2, the Kd is 55 nM.

Consider B3, for which the Kd stood at 0.4 nM.

Consider B4, for which the Kd worked out at 4 nM.

Consider B5, for which the Kd is 16 nM.

For the origin of these results see patent US20090220521A1 (published 2009).
